Experimental data published in article PMC10227007.

Tests used:
[1] = target: MYC-OsSERL2 (overexpression line MYC-OsSERL2-OE1) (Oryza sativa japonica cv. Zhonghua 11 (ZH11)); assay: co-IP; seedlings of COG1-HA-L1/MYC-OsSERL2-OE1 treated at 4 °C for 0, 24 and 48 h; total protein adjusted to equivalent levels of COG1-HA; precipitated with Anti-c-Myc Magnetic Beads, COG1-HA band measured by Image J (0 h = 1.0)
[2] = target: OsSERL2-MYC-cCFP (Oryza sativa japonica cv. Zhonghua 11 (ZH11)); assay: split reporter (BiFC, NanoBiT); BiFC in rice protoplasts, nVenus and cCFP fusions co-expressed, YFP fluorescence by confocal microscopy (Leica TCS SP5); in one experiment the protoplasts were kept at 28 °C or 4 °C for 24 h and the intensity measured by Image J

Substance | relative density of the co-precipitated COG1-HA band after 24 h at 4 °C, against 0 h (1.0) (relative to 0 h (1.0)) [1] | relative density of the co-precipitated COG1-HA band after 48 h at 4 °C, against 0 h (1.0) (relative to 0 h (1.0)) [1] | BiFC fluorescence intensity at 4 °C for 24 h, relative to 28 °C (1.0) (relative to 28 °C (1.0)) [2]
COG1-HA (from the COG1::COG1-HA transgene, line COG1-HA-L1) (receptor) | 4.7 | 5.8 | –
COG1-HA-nVenus (receptor) | – | – | 4.1
